Results as given in US20260242735A1 (UNIVERSIT T BASEL, published 2026).

How the values were obtained:
Assay in all cases: alanine scan, flow cytometry;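 also: HEK293-T cells transiently expressing single-residue alanine mutants of CD33 (alanine swapped to serine), antibody binding read by fluorescence in duplicate, background-subtracted, expressed relative to wild-type CD33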
human CD33 S248A = human CD33 S248A (human, UniProt P20138 18-364)
human CD33 T223A = human CD33 T223A (human, UniProt P20138 18-364)
human CD33 E252A = human CD33 E252A (human, UniProt P20138 18-364)
human CD33 N209A = human CD33 N209A (human, UniProt P20138 18-364)
human CD33 A255S = human CD33 A255S (human, UniProt P20138 18-364)
human CD33 Q251A = human CD33 Q251A (human, UniProt P20138 18-364)
human CD33 L229A = human CD33 L229A (human, UniProt P20138 18-364)
human CD33 V257A = human CD33 V257A (human, UniProt P20138 18-364)
human CD33 G241A = human CD33 G241A (human, UniProt P20138 18-364)
human CD33 G249A = human CD33 G249A (human, UniProt P20138 18-364)
human CD33 L197A = human CD33 L197A (human, UniProt P20138 18-364)
human CD33 T239A = human CD33 T239A (human, UniProt P20138 18-364)
human CD33 G264A = human CD33 G264A (human, UniProt P20138 18-364)
human CD33 I262A = human CD33 I262A (human, UniProt P20138 18-364)
human CD33 P235A = human CD33 P235A (human, UniProt P20138 18-364)
human CD33 V267A = human CD33 V267A (human, UniProt P20138 18-364)
human CD33 Y233A = human CD33 Y233A (human, UniProt P20138 18-364)
human CD33 L270A = human CD33 L270A (human, UniProt P20138 18-364)
human CD33 T253A = human CD33 T253A (human, UniProt P20138 18-364)
human CD33 G256A = human CD33 G256A (human, UniProt P20138 18-364)
human CD33 T211A = human CD33 T211A (human, UniProt P20138 18-364)
human CD33 T200A = human CD33 T200A (human, UniProt P20138 18-364)
human CD33 T208A = human CD33 T208A (human, UniProt P20138 18-364)
human CD33 Q236A = human CD33 Q236A (human, UniProt P20138 18-364)
human CD33 T268A = human CD33 T268A (human, UniProt P20138 18-364)
human CD33 Q228A = human CD33 Q228A (human, UniProt P20138 18-364)
human CD33 P203A = human CD33 P203A (human, UniProt P20138 18-364)
human CD33 G220A = human CD33 G220A (human, UniProt P20138 18-364)
human CD33 E224A = human CD33 E224A (human, UniProt P20138 18-364)
human CD33 V234A = human CD33 V234A (human, UniProt P20138 18-364)
human CD33 V231A = human CD33 V231A (human, UniProt P20138 18-364)
human CD33 N230A = human CD33 N230A (human, UniProt P20138 18-364)
human CD33 T226A = human CD33 T226A (human, UniProt P20138 18-364)
human CD33 I199A = human CD33 I199A (human, UniProt P20138 18-364)
human CD33 F216A = human CD33 F216A (human, UniProt P20138 18-364)
human CD33 L210A = human CD33 L210A (human, UniProt P20138 18-364)
human CD33 H259A = human CD33 H259A (human, UniProt P20138 18-364)
human CD33 N237A = human CD33 N237A (human, UniProt P20138 18-364)
human CD33 Q204A = human CD33 Q204A (human, UniProt P20138 18-364)
human CD33 V258A = human CD33 V258A (human, UniProt P20138 18-364)
human CD33 A269S = human CD33 A269S (human, UniProt P20138 18-364)
Sequence of human CD33 A269S (P20138 18-364 A269S limits assumed): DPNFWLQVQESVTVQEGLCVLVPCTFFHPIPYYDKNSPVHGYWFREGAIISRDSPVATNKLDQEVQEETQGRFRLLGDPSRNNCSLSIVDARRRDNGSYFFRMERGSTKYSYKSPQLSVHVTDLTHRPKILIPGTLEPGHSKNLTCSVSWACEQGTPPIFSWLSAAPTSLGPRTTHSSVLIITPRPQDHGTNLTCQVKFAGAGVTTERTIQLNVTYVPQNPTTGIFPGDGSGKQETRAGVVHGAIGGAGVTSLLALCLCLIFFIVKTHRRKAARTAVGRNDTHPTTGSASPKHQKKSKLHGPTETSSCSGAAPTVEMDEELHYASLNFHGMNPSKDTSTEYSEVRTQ

Sequence of human CD33 Q204A (P20138 18-364 Q204A limits assumed): as the sequence (P20138 18-364 A269S limits assumed) above, with Q187A, S252A counted along it
Sequence of human CD33 E224A (P20138 18-364 E224A limits assumed): as the sequence (P20138 18-364 A269S limits assumed) above, with E207A, S252A counted along it
Sequence of human CD33 V267A (P20138 18-364 V267A limits assumed): as the sequence (P20138 18-364 A269S limits assumed) above, with V250A, S252A counted along it
Sequence of human CD33 S248A (P20138 18-364 S248A limits assumed): as the sequence (P20138 18-364 A269S limits assumed) above, with S231A, S252A counted along it
Sequence of human CD33 N209A (P20138 18-364 N209A limits assumed): as the sequence (P20138 18-364 A269S limits assumed) above, with N192A, S252A counted along it
Sequence of human CD33 I262A (P20138 18-364 I262A limits assumed): as the sequence (P20138 18-364 A269S limits assumed) above, with I245A, S252A counted along it
Sequence of human CD33 L210A (P20138 18-364 L210A limits assumed): as the sequence (P20138 18-364 A269S limits assumed) above, with L193A, S252A counted along it
Sequence of human CD33 N230A (P20138 18-364 N230A limits assumed): as the sequence (P20138 18-364 A269S limits assumed) above, with N213A, S252A counted along it
Sequence of human CD33 Q251A (P20138 18-364 Q251A limits assumed): as the sequence (P20138 18-364 A269S limits assumed) above, with Q234A, S252A counted along it
Sequence of human CD33 P203A (P20138 18-364 P203A limits assumed): as the sequence (P20138 18-364 A269S limits assumed) above, with P186A, S252A counted along it
Sequence of human CD33 G241A (P20138 18-364 G241A limits assumed): as the sequence (P20138 18-364 A269S limits assumed) above, with G224A, S252A counted along it
Sequence of human CD33 L270A (P20138 18-364 L270A limits assumed): as the sequence (P20138 18-364 A269S limits assumed) above, with S252A, L253A counted along it
Sequence of human CD33 L197A (P20138 18-364 L197A limits assumed): as the sequence (P20138 18-364 A269S limits assumed) above, with L180A, S252A counted along it

B1: Refmab #6 (antibody, V domains shown)
VH: QVQLQQPGAEVVKPGASVKMSCKASGYTFTSYYIHWIKQTPGQGLEWVGVIYPGNDDISYNQKFQGKATLTADKSSTTAYMQLSSLTSEDSAVYYCAREVRLRYFDVWGQGTTVTVSS
VL: EIVLTQSPGSLAVSPGERVTMSCKSSQSVFFSSSQKNYLAWYQQIPGQSPRLLIYWASTRESGVPDRFTGSGSGTDFTLTISSVQPEDLAIYYCHQYLSSRTFGQGTKLEIK
notes: Full-length format is human IgG1 Fc silent (PG-LALA); also made as Fab; The alanine scan used IgG or Fab
- Mean % WT Binding (human CD33 S248A): 94.4 % WT binding
- Mean % WT Binding (human CD33 T223A): 110 % WT binding
- Mean % WT Binding (human CD33 E252A): 108 % WT binding
- Mean % WT Binding (human CD33 N209A): 101 % WT binding
- Mean % WT Binding (human CD33 A255S): 96.8 % WT binding
- Mean % WT Binding (human CD33 Q251A): 126 % WT binding
- Mean % WT Binding (human CD33 L229A): 97.1 % WT binding
- Mean % WT Binding (human CD33 V257A): 98.1 % WT binding
- Mean % WT Binding (human CD33 G241A): 101 % WT binding
- Mean % WT Binding (human CD33 G249A): 96.6 % WT binding
- Mean % WT Binding (human CD33 L197A): 103 % WT binding
- Mean % WT Binding (human CD33 T239A): 87.3 % WT binding
- Mean % WT Binding (human CD33 G264A): 103 % WT binding
- Mean % WT Binding (human CD33 I262A): 99.4 % WT binding
- Mean % WT Binding (human CD33 P235A): 84.3 % WT binding
- Mean % WT Binding (human CD33 V267A): 101 % WT binding
- Mean % WT Binding (human CD33 Y233A): 103 % WT binding
- Mean % WT Binding (human CD33 L270A): 105 % WT binding
- Mean % WT Binding (human CD33 T253A): 96.8 % WT binding
- Mean % WT Binding (human CD33 G256A): 108 % WT binding
- Mean % WT Binding (human CD33 T211A): 92.2 % WT binding
- Mean % WT Binding (human CD33 T200A): 110 % WT binding
- Mean % WT Binding (human CD33 T208A): 116 % WT binding
- Mean % WT Binding (human CD33 Q236A): 103 % WT binding
- Mean % WT Binding (human CD33 T268A): 100 % WT binding
- Mean % WT Binding (human CD33 Q228A): 100 % WT binding
- Mean % WT Binding (human CD33 P203A): 103 % WT binding
- Mean % WT Binding (human CD33 G220A): 99.8 % WT binding
- Mean % WT Binding (human CD33 E224A): 106 % WT binding
- Mean % WT Binding (human CD33 V234A): 109 % WT binding
- Mean % WT Binding (human CD33 V231A): 92.8 % WT binding
- Mean % WT Binding (human CD33 N230A): 83.8 % WT binding
- Mean % WT Binding (human CD33 T226A): 96.5 % WT binding
- Mean % WT Binding (human CD33 I199A): 106 % WT binding
- Mean % WT Binding (human CD33 F216A): 82.5 % WT binding
- Mean % WT Binding (human CD33 L210A): 96.9 % WT binding
- Mean % WT Binding (human CD33 H259A): 86.4 % WT binding
- Mean % WT Binding (human CD33 N237A): 101 % WT binding
- Mean % WT Binding (human CD33 Q204A): 108 % WT binding
- Mean % WT Binding (human CD33 V258A): 95.9 % WT binding
- Mean % WT Binding (human CD33 A269S): 93.9 % WT binding

B2: Refmab #5 (antibody, V domains shown)
VH: QVQLVQSGAEVKKPGASVKVSCKASGYTFTNYDINWVRQAPGQGLEWIGWIYPGDGSTKYNEKFKAKATLTADTSTSTAYMELRSLRSDDTAVYYCASGYEDAMDYWGQGTTVTVSS
VL: DIQMTQSPSSLSASVGDRVTINCKASQDINSYLSWFQQKPGKAPKTLIYRANRLVDGVPSRFSGSGSGQDYTLTISSLQPEDFATYYCLQYDEFPLTFGGGTKVEIK
notes: as for B1
- Mean % WT Binding (human CD33 S248A): 105 % WT binding
- Mean % WT Binding (human CD33 T223A): 115 % WT binding
- Mean % WT Binding (human CD33 E252A): 114 % WT binding
- Mean % WT Binding (human CD33 N209A): 88.1 % WT binding
- Mean % WT Binding (human CD33 A255S): 88.3 % WT binding
- Mean % WT Binding (human CD33 Q251A): 94.7 % WT binding
- Mean % WT Binding (human CD33 L229A): 106 % WT binding
- Mean % WT Binding (human CD33 V257A): 134 % WT binding
- Mean % WT Binding (human CD33 G241A): 109 % WT binding
- Mean % WT Binding (human CD33 G249A): 105 % WT binding
- Mean % WT Binding (human CD33 L197A): 102 % WT binding
- Mean % WT Binding (human CD33 T239A): 107 % WT binding
- Mean % WT Binding (human CD33 G264A): 94.4 % WT binding
- Mean % WT Binding (human CD33 I262A): 97.5 % WT binding
- Mean % WT Binding (human CD33 P235A): 102 % WT binding
- Mean % WT Binding (human CD33 V267A): 95.2 % WT binding
- Mean % WT Binding (human CD33 Y233A): 89.5 % WT binding
- Mean % WT Binding (human CD33 L270A): 91 % WT binding
- Mean % WT Binding (human CD33 T253A): 94.6 % WT binding
- Mean % WT Binding (human CD33 G256A): 87.6 % WT binding
- Mean % WT Binding (human CD33 T211A): 80.4 % WT binding
- Mean % WT Binding (human CD33 T200A): 98.3 % WT binding
- Mean % WT Binding (human CD33 T208A): 100 % WT binding
- Mean % WT Binding (human CD33 Q236A): 100 % WT binding
- Mean % WT Binding (human CD33 T268A): 84.7 % WT binding
- Mean % WT Binding (human CD33 Q228A): 129 % WT binding
- Mean % WT Binding (human CD33 P203A): 105 % WT binding
- Mean % WT Binding (human CD33 G220A): 93.5 % WT binding
- Mean % WT Binding (human CD33 E224A): 97.1 % WT binding
- Mean % WT Binding (human CD33 V234A): 115 % WT binding
- Mean % WT Binding (human CD33 V231A): 88.2 % WT binding
- Mean % WT Binding (human CD33 N230A): 105 % WT binding
- Mean % WT Binding (human CD33 T226A): 97.9 % WT binding
- Mean % WT Binding (human CD33 I199A): 132 % WT binding
- Mean % WT Binding (human CD33 F216A): 104 % WT binding
- Mean % WT Binding (human CD33 L210A): 78.2 % WT binding
- Mean % WT Binding (human CD33 H259A): 94.5 % WT binding
- Mean % WT Binding (human CD33 N237A): 91.8 % WT binding
- Mean % WT Binding (human CD33 Q204A): 103 % WT binding
- Mean % WT Binding (human CD33 V258A): 95.9 % WT binding
- Mean % WT Binding (human CD33 A269S): 124 % WT binding
